The values that follow come from patent US20250019432A1 (MABLYTICS, published 2025).

T1: S12-C2 (human, UniProt Q96PQ1 1-481)
T1 construct: also called siglec12 C2set2 region
T1 sequence: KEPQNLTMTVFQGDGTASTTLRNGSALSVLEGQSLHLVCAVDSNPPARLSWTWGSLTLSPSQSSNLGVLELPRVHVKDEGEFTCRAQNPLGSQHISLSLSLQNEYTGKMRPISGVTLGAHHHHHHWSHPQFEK

B1: S0057 (antibody, V domains shown)
VH: QGQLVQSGAEVKKPGASVKVSCKASGYTFNNYGISWVRQAPGQGLEWMGWISAYNGFTRSTQKFQGRVTLTTDTSTSTAHMELRSLRSDDTAAYYCARDGGDGFDPWGQGTLVTVSS
VL: EIVLTQSPATLSLSPGERATLSCRASQSVSSFLAWYQQKPGQAPRLLIFDASNRATGIPARFSGSGSGTDFTLTISSLEPEDFAVYYCQQRSNWITFGQGTRLEIKRA
notes: human variable domains with mouse constant regions (Trianni mouse hybridoma); also called S0057 whole antibody
B2: S0102 (antibody, V domains shown)
VH: QVQLVESGGGVVQPGRSLRLSCAASGFTFSSYGMHWVRQAPGKGLEWVAVISYDGSNKYYTDSVKGRFTISRDNSKNTLYLQMNSLRAEDTAVYYCARGGYYGSGSLDYWGQGTLVTVSS
VL: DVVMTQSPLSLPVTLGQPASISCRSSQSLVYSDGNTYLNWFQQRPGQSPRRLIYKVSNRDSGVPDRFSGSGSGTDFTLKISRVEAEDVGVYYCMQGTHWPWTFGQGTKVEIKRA
notes: human variable domains with mouse constant regions (Trianni mouse hybridoma); also called S0102 anti-Siglec12 antibody
B3: S0042 (antibody, V domains shown)
VH: QVQLVQSGTEVKKPGASVKVSCKVSGYTLSDLSIHWVRQAPGKGLEWMGGFEPEDGEIIYAQKFQGRVIMTEDTSTDTAYMKLSSLRSEDTAVYYCATDKRYFDWLLSGFDYWGQGTLVTVSS
VL: DIQLTQSPSFLSASVGDRVTITCRASQGISSYLAWYQQKPGKAPKLLIFAASTLQSGVPSRFSGSGSGTEFTLTISSLQPEDFATYYCQRLHSYPRTFGQGTKVEIKRA
notes: human variable domains with mouse constant regions (Trianni mouse hybridoma)
B4: S0040 (antibody, V domains shown)
VH: QVQLVQSGAEVKKPGASVKVSCKASGYTFTSYDINWVRQATGQGLEWMGWMNPNSGNTGYAQNFQGRVTMTRNTSINTAYMELSSLRSEDTAVYYCTRGGPTLVRGVIIRDAFDFWGQGTMVTVSS
VL: EIVMTQSPATLSVSPGERATLSCRASQSVSNSFAWYQQKPGQAPRLLIYGAFTRATGIPARFSGSGSGTEFTLTISSLQSEDFAVYYCQQYKTWPLTFGGGTKVEIKR
notes: as for B3
B5: S0103 (antibody, V domains shown)
VH: B4 VH with N73D, I76V, T97A, T102N
VL: B4 VL with T69I
notes: as for B3
B6: S0023 (antibody, V domains shown)
VH: EVQLLESGGGLVQPGGSLRLSCAASGFTFSTFAMSWVRQAPGKGLEWVSTISGGGDSTYYADSVKGRFTISRDNSKNMMSLQMNSLRAVDTAVYYCVKGGGDEYFYYGMDVWGQGTTVTVSS
VL: DIQMTQSPSSLSASVGDRVTITCRASQGIRNDLGWYQQKPGKAPKRLIYSASSLQSGVPSRFSGSGSGTEFTLTISSLQPEDFATYYCLQHNSYPYTFGQGTPLDIKR
notes: as for B3

Residue numbers refer to the chain shown, from its start.

T4 sequence (chain, as listed by the source limits assumed): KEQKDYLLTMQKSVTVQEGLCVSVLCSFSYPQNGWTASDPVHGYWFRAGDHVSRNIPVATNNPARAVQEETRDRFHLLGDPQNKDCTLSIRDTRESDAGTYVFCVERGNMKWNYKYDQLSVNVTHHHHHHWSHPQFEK
T9 sequence (Q9Y336 18-463 limits assumed): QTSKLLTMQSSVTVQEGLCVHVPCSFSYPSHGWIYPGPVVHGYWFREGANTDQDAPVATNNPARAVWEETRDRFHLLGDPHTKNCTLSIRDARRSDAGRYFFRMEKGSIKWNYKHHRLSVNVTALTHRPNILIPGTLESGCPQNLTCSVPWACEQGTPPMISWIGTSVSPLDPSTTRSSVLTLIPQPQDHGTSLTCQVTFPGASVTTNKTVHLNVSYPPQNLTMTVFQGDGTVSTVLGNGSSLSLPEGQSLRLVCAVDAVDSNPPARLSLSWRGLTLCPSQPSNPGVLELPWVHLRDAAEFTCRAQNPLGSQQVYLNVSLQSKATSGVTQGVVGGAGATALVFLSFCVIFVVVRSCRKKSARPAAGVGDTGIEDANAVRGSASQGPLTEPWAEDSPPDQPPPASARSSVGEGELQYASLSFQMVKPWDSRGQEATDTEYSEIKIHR
T5 sequence (Q96PQ1 other isoform, or with tags, fused parts or gaps limits assumed): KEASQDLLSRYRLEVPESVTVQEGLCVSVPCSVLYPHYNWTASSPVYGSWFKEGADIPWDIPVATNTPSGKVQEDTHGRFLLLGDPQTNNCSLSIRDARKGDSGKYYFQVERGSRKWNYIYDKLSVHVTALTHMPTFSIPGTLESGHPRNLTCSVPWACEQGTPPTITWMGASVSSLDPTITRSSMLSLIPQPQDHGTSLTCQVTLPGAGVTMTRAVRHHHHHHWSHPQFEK

The target in the first test is T2, S7ecto-Fc (human siglec7 ectodomain fused with human Fc domain) (human, UniProt Q9Y286 19-353).
T2 construct: extracellular domain; bought from R&D Systems; not shown: human Fc domain
T2 sequence (Q9Y286 19-353): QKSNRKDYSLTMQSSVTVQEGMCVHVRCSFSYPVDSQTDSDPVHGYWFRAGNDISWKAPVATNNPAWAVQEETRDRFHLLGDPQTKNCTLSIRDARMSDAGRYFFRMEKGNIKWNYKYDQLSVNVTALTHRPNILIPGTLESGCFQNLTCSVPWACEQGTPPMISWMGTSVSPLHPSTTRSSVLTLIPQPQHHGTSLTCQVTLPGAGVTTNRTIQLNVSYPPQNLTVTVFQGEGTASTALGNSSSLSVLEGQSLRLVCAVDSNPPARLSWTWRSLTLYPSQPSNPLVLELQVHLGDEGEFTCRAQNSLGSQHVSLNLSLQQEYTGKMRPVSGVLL
Description: ELISA.
As to B1, the binding result is recorded as “no binding (tested: A450>0.09 (so in the source))”.

The next test deals with T3, S12-Fc (human siglec12 extracellular domain fused with mouse Fc2a fragment) (human; mouse).
T3 construct: also called S12ecto-mouse Fc2a
T3 sequence (chain, as listed by the source limits assumed): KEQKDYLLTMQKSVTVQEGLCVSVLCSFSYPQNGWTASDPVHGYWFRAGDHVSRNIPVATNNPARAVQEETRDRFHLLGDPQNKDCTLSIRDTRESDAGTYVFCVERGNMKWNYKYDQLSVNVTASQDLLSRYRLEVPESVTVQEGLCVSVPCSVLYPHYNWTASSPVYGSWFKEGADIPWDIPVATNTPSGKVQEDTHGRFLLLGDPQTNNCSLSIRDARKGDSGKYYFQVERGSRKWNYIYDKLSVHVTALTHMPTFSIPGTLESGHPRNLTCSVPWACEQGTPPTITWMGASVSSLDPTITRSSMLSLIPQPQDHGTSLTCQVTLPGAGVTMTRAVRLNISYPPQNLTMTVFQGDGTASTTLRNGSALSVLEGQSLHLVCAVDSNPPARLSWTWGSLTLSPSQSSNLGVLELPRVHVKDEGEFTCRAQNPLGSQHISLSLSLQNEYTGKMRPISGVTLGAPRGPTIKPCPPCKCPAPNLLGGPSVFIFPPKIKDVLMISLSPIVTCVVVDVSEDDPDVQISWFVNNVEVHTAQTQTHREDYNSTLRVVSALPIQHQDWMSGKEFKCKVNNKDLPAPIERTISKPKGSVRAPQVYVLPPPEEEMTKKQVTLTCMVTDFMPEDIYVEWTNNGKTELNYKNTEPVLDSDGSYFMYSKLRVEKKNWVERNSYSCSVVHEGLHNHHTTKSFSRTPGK
Description: ELISA. Here is the method: After 6 weeks of immunization, serum samples from immunized mice were screened for the presence of siglec12-specific immunoglobulins. Screening was carried out by enzyme-linked immunosorbent assay (ELISA) and by fluorescence-associated cell sorting (FACS). ELISA assays utilized assay plates coated with S12-Fc target antigen for immobilization of siglec12-specific immunoglobulins from mouse serum samples, which were detected using anti-mouse light chain (kappa and lambda) secondary antibody conjugated to horseradish peroxidase (HRP). The level of bound secondary antibody was assessed by incubation with colorimetric peroxidase substrate followed by measurement of light absorbance intensity values obtained at 450 nm. For FACS analysis, serum samples were combined with U937 cells (Fc receptor blocked with 10% human serum), an AML cell line that overexpresses human siglec12. Immunoglobulin binding to siglec12 associated with these cells is a strong indicator of potential immunotherapeutic use to treat AML. Anti-mouse heavy chain fluorescent detection reagents were used to label cell surface-bound serum immunoglobulins before FACS analysis. Lymph node and spleen cells from the three best responders were harvested and fused with P3X63Ag8.653 mouse myeloma cells. After 10-14 days of selection, the resulting hybridoma library was single-cell cloned into 96-well culture plates using FACS. After 10-14 days of single cell expansion, all monoclonal hybridoma culture supernatants were screened for S12-Fc binding immunoglobulins by ELISA. Supernatant positive for S12-Fc-binding immunoglobulins was further screened by FACS for immunoglobulin binding to U937 cells. The Table includes an antibody identification number (ID #) assigned to siglec12-binding antibodies associated with each hybridoma culture. For ELISA results, background adjusted mean absorbance values obtained at 450 nm are shown. For FACS analysis, Flow Fluor MFI is the mean fluorescence intensity from flow cytometry assay (background MFI=100) and flow % gated is the percentage of cells having greater than background fluorescence.
As to B2, the A450 was determined as 3.34.

B3 returned an A450 of 1.99.

Regarding B1, the A450 amounted to 2.64.

Another test addresses T4, S12-V1 (human).
T4 construct: also called siglec12 Vset1 region
The experiment in a line: ELISA. As for the experimental part:
(§1) For ELISA assays, purified subdomain proteins were passively immobilized on assay plates and incubated with media from hybridoma cultures described above before detection of bound anti-subdomain antibodies using anti-mouse (heavy/light) secondary antibody conjugated to horseradish peroxidase (HRP). Levels of bound secondary antibody were assessed by applying colorimetric substrate and measuring absorbance values at 450 nm. Absorbance values greater than 0.07 indicate specific binding.
For orientation: ELISA stands for enzyme-linked immunosorbent assay.
On to B2, for which the binding result is listed as “no binding (tested: A450 0.07)”.

Take B3: the A450 is 0.1.

As for B4, the binding result is “no binding (tested: A450 0.07)”.

Take B5: the binding result is on record as “no binding (tested: A450 0.07)”.

Turning to B1, the binding result was “no binding (tested: A450 0.07)”.

Turning to B6, the binding result is reported as “no binding (tested: A450 0.07)”.

A further test addresses T5, S12-V2C1 (human, UniProt Q96PQ1 1-358).
T5 construct: also called siglec12 Vset2-C2set1 region
The experiment in a line: ELISA. As for the experimental part:
as §1
B2 came in with an A450 of 1.65.

On to B3, for which the binding result is given as “no binding (tested: A450 0.07)”.

Turning to B4, the binding result is on record as “no binding (tested: A450 0.07)”.

For B5, the binding result is “no binding (tested: A450 0.07)”.

Molecule B1 had an A450 of 0.62.

The next test deals with T1, S12-C2. The experiment in a line: ELISA. Here is the method:
as §1
As to B2, the A450 was determined as 0.08.

As for B3, the binding result is reported as “no binding (tested: A450 0.07)”.

As to B1, the binding result is on record as “no binding (tested: A450 0.07)”.

As to B6, the binding result was “no binding (tested: A450 0.07)”.

In another test the target is T2, S7ecto-Fc (human siglec7 ectodomain …). The experiment in a line: ELISA. This is another data set of the same source. As for the experimental part: (§2) Fusion proteins of human siglec7 or siglec9 ectodomains fused with human Fc domains (R&D Systems, Minneapolis, MN) were immobilized on assay plates and incubated with media from hybridoma cultures described above before detection of bound antibodies using anti-mouse (heavy/light) secondary antibody conjugated to HRP. Levels of bound secondary antibody were assessed by applying colorimetric substrate and measuring absorbance values at 450 nm.
Consider B2, for which the A450 amounted to 0.07.

Consider B3, for which the A450 turned out to be 0.06.

Regarding B4, the A450 was 0.05.

With B5, the A450 was determined as 0.06.

Take B1: the A450 came to 0.07.

The molecule B6 registered an A450 of 0.05.

In the next test the target is T6, S9ecto-Fc (human siglec9 ectodomain fused with human Fc domain) (human, UniProt Q9Y336 18-348).
T6 construct: extracellular domain; bought from R&D Systems; not shown: human Fc domain
T6 sequence (Q9Y336 18-348): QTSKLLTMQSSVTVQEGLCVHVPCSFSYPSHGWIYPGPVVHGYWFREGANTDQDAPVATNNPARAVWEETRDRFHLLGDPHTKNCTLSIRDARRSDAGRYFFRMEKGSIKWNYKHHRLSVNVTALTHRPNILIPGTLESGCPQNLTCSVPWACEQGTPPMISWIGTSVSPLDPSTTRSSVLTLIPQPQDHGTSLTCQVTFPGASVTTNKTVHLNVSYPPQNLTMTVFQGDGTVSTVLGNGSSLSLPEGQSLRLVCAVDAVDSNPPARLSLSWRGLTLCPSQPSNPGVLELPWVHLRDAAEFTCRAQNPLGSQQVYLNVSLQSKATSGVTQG
The experiment in a line: ELISA. As for the experimental part: as §2
In the case of B2, the A450 was determined as 0.06.

B3 yielded an A450 of 0.05.

Regarding B4, the A450 was 0.05.

B5: the A450 came to 0.05.

B1 returned an A450 of 0.08.

Molecule B6 returned an A450 of 0.05.

The target in a further test is T7, siglec7 with C-terminal FLAG tag on Expi 293 cells (UniProt Q9Y286 19-467, limits assumed).
T7 construct: whole, on cells; not shown: C-terminal FLAG tag
T7 sequence (Q9Y286 19-467 limits assumed): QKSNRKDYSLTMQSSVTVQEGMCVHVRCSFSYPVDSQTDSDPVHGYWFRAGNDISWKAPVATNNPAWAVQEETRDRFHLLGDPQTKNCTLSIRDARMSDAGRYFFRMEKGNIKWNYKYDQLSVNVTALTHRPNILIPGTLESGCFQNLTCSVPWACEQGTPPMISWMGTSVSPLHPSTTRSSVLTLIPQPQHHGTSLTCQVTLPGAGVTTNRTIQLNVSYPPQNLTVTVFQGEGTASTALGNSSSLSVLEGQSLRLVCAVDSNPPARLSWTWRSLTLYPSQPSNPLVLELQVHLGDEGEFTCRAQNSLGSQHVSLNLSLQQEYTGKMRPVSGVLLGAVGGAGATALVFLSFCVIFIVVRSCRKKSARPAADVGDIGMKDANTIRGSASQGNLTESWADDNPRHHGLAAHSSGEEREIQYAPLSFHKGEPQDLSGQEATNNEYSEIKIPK
The experiment in a line: flow cytometry, transfected Expi 293, 500 nM. Here is the method:
(§3) To verify anti-siglec12 antibody specificity for native siglec12 (over other siglec family members), cross-reactivity analysis was carried out using flow cytometry. Expi 293 cells were grown in 6 well plates and transfected with […] of pcDNA3.1 expression vectors (Thermo Fisher Scientific, Waltham, MA) with inserts encoding siglec6, siglec7, siglec8, siglec9, or siglec12 proteins with C-terminal FLAG tags. The following day, Expi293 enhancers were added. On day 2 (post-transfection) cells were washed in PBSB and aliquoted into plastic V-bottomed plates at a density of 5×10⁵ cells/well. An aliquot was also used for Western blot analysis to confirm siglec expression (using anti-FLAG antibody as described below). Plated cells were incubated with anti-siglec12 antibodies at a concentration of 500 nM or siglec-specific control antibody (all from R&D Systems, Minneapolis, MN; Siglec6-specific clone 767329; Siglec8-specific clone 837535; Siglec9-specific clone 191240) at a concentration of 12.5 μg/mL for 2 hours on ice. Cells were then washed with ice cold PBSB and incubated with PE-goat anti mouse H/L chain secondary antibody (1:400 in PBSB) for 30 minutes on ice. Cells were again washed with ice cold PBSB and analyzed for surface staining based on fluorescence intensity determined by GUAVA® […]™ Plus flow cytometer.
As to B3, the MFI is 3.9.

B1 had an MFI of 2.8.

As for B6, the MFI came to 2.1.

Another test deals with T8, siglec8 with C-terminal FLAG tag on Expi 293 cells (UniProt Q9NYZ4 17-499, limits assumed).
T8 construct: whole, on cells; not shown: C-terminal FLAG tag
T8 sequence (Q9NYZ4 17-499 limits assumed): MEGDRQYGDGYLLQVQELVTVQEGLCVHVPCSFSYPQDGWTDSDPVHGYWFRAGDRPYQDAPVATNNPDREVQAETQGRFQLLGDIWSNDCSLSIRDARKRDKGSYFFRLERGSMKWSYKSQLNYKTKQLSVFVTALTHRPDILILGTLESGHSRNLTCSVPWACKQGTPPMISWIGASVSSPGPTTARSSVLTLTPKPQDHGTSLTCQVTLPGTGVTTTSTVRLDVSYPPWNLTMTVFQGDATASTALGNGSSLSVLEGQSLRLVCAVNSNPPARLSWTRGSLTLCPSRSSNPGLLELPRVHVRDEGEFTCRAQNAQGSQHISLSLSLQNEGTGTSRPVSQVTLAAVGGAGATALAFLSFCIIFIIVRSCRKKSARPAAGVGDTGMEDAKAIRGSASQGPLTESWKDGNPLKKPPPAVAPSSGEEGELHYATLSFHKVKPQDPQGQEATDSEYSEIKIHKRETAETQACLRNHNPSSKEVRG
Description: flow cytometry, transfected Expi 293, 500 nM. As for the experimental part:
as §3
(In flow cytometry, cells or beads pass a laser one at a time.)
For B2, the MFI is 7.

B3: the MFI stood at 5.3.

The molecule B1 gave an MFI of 6.3.

On to B6, for which the MFI came out at 2.8.

The next test has as its target T9, siglec9 with C-terminal FLAG tag on Expi 293 cells (UniProt Q9Y336 18-463, limits assumed).
T9 construct: whole, on cells; not shown: C-terminal FLAG tag
The experiment in a line: flow cytometry, transfected Expi 293, 500 nM. Here is the method:
as §3
As for B3, the MFI stood at 2.3.

B1 displayed an MFI of 1.3.

The molecule B6 had an MFI of 3.
